Patent US20240400638A1, “COMBINATION OF RELAXIN AND VASOPRESSIN ANALOGUES FOR TREATMENT OF RENAL DISORDERS OR CONDITIONS” (River 2 Renal Corp., priority 2021, published 2024)
Numbered stars: 1 amine (or outer) side, 2 acyl side, 3 side chain; on linkers, the order of the positions; unused ones are H or OH. Square brackets hold non-standard residues; d marks the D form. Side chains are listed from the residue outwards. * marks the point of attachment. TTDS = 4-[3-[2-[2-(3-aminopropoxy)ethoxy]ethoxy]propylamino]-4-oxo-butanoyl; γGlu = O=C(O)[C@H](CCC(=O)[*:2])N[*:1]; Stearoyl = CCCCCCCCCCCCCCCCCC(=O)*; Palmitoyl = CCCCCCCCCCCCCCCC(=O)*; αMeK = C[C@](N)(CCCCN)C(=O)O; hLys = NCCCCC[C@H](N)C(=O)O; AEEA = NCCOCCOCC(=O)O; Aib = CC(C)(N)C(=O)O

T1: human RXFP1 (human, UniProt Q9HBX9 1-757)
T1 sequence (looked up): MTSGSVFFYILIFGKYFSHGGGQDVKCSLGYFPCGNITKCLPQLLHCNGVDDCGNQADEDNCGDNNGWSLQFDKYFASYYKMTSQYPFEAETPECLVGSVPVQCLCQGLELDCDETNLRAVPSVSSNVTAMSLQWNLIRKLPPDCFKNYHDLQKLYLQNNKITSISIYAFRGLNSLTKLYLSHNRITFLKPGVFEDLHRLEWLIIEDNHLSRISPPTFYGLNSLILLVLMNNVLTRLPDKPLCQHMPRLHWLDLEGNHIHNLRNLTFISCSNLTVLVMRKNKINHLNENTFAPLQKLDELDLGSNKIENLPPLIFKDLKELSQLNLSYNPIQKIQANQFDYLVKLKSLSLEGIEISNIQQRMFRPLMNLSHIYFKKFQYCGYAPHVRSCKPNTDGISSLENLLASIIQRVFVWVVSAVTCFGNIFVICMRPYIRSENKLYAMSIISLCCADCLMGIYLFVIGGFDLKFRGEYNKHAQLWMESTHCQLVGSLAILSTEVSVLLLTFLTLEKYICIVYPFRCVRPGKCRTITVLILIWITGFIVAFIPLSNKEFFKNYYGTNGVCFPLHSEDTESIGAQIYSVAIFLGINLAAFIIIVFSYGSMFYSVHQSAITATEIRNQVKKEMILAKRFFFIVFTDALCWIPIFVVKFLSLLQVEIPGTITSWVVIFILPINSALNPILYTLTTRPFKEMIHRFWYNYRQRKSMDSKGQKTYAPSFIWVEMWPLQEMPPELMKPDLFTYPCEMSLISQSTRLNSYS


Biological target: T1, human RXFP1
Experiment: cell-based or functional assay

Binder	EC50 (nM), OVCAR 5 cells (cAMP)	EMax, OVCAR 5 cells (cAMP)
LEGREKVRAKIXXEGKSTFSKRAK (Ac-L-E-G-R-E-K-V-R-A-K(Ac)-I-Aib-Aib-E-G-K(PEG2DGA-PEG2DGA-PEG2DGA-gE-gE-gE-Stea)-S-T-F-S-Mly-R-A-K(Ac)-NH2) [Relaxin peptide analogue of SEQ ID NO: 32]	0.1 nM	97%
Ac-LEGREKVRAK(Ac)I[Aib][Aib]EGK([TTDS-TTDS-TTDS-γGlu-γGlu-γGlu-Stearoyl])STWS[αMeK]RAK(Ac)-NH2 [Relaxin peptide analogue of SEQ ID NO: 30]	0.21 nM	89%
Ac-LEGRE[hLys]VRAK(Ac)I[Aib][Aib]EGK([TTDS-TTDS-TTDS-γGlu-γGlu-γGlu-Palmitoyl])STFS[αMeK]RAK(Ac)-NH2 [Relaxin peptide analogue of SEQ ID NO: 28]	0.62 nM	88%
Ac-LEGREKVRAK(Ac)I[Aib][Aib]EGK([AEEA-AEEA-AEEA-AEEA-γGlu-γGlu-γGlu-Stearoyl])STFS[αMeK]RAK(Ac)-NH2 (SMILES CCCCCCCCCCCCCCCCCC(=O)N[C@@H](CCC(=O)N[C@@H](CCC(=O)N[C@@H](CCC(=O)NCCOCCOCC(=O)NCCOCCOCC(=O)NCCOCCOCC(=O)NCCOCCOCC(=O)NCCCC[C@H](NC(=O)CNC(=O)[C@H](CCC(=O)O)NC(=O)C(C)(C)NC(=O)C(C)(C)NC(=O)[C@@H](NC(=O)[C@H](CCCCNC(C)=O)NC(=O)[C@H](C)NC(=O)[C@H](CCCNC(=N)N)NC(=O)[C@@H](NC(=O)[C@H](CCCCN)NC(=O)[C@H](CCC(=O)O)NC(=O)[C@H](CCCNC(=N)N)NC(=O)CNC(=O)[C@H](CCC(=O)O)NC(=O)[C@H](CC(C)C)NC(C)=O)C(C)C)[C@@H](C)CC)C(=O)N[C@@H](CO)C(=O)N[C@H](C(=O)N[C@@H](Cc1ccccc1)C(=O)N[C@@H](CO)C(=O)N[C@@](C)(CCCCN)C(=O)N[C@@H](CCCNC(=N)N)C(=O)N[C@@H](C)C(=O)N[C@@H](CCCCNC(C)=O)C(N)=O)[C@@H](C)O)C(=O)O)C(=O)O)C(=O)O) [Relaxin peptide analogue of SEQ ID NO: 26]	0.43 nM	96%
Ac-LEGREKVRAK(Ac)I[Aib][Aib]EGK([TTDS-TTDS-γGlu-γGlu-γGlu-Stearoyl])STFS[αMeK]RAK(Ac)-NH2 [Relaxin peptide analogue of SEQ ID NO: 34]	0.14 nM	90%
Ac-LEGREKVRAK(Ac)I[Aib][Aib]EGK([TTDS-TTDS-TTDS-γGlu-γGlu-γGlu-Palmitoyl])STFS[αMeK]RAK(Ac)-NH2 [Relaxin peptide analogue of SEQ ID NO: 3]	0.34 nM	97%
Ac-LEGREKVR[Aib]K(Ac)I[Aib][Aib]EGK([TTDS-TTDS-TTDS-γGlu-γGlu-γGlu-Palmitoyl])STFS[αMeK]RAK(Ac)-NH2 [Relaxin peptide analogue of SEQ ID NO: 29]	1.6 nM	88%
Ac-LEGREQVRAK(Ac)I[Aib][Aib]EGK([TTDS-TTDS-TTDS-γGlu-γGlu-γGlu-Palmitoyl])STFS[αMeK]RAK(Ac)-NH2 [Relaxin peptide analogue of SEQ ID NO: 25]	28.7 nM	100%
Ac-LEGRERVRAK(Ac)I[Aib][Aib]EGK([TTDS-TTDS-TTDS-γGlu-γGlu-γGlu-Palmitoyl])STFS[αMeK]RAK(Ac)-NH2 [Relaxin peptide analogue of SEQ ID NO: 27]	1.8 nM	98%
Ac-LEGRERVRAK(Ac)I[Aib][Aib]EGK([TTDS-TTDS-TTDS-γGlu-γGlu-γGlu-Palmitoyl])STWS[Aib]RRK(Ac)-NH2 [Relaxin peptide analogue of SEQ ID NO: 31]	0.19 nM	94%
